Values of other authors in PMC8189991.

Target: Asp96 (UniProt position 109, PLLLLDLALLV)
Assay: IR

In the case of “Bacteriorhodopsin (Halobacterium salinarum (not stated in the article; inferred))”, the pKa is given as “above 12”.
